Ends that are not written are not given here.
Molecular target: GLP-1 receptor
Assay: cell-based or functional assay

Binder	GLP-1 Receptor Activation
HVEGTFTSDVSSYKEGQAAKEFIAWLVKGRG [Val^8-Lys^20-GLP-1(7-37)OH]	0.33 relative to GLP-1(7-37)OH
HVEGTFTSDASSYLEGQAAKEFIAWLVKGRG [Val^8-Ala^16-GLP-1(7-37)OH]	0.112 relative to GLP-1(7-37)OH
HVEGTFTSDVSSYLEPQAAKEFIAWLVKGRG [Val^8-Pro^22-GLP-1(7-37)OH]	0.01 relative to GLP-1(7-37)OH
HVEGTFTSDLSSYLEGQAAEEFIAWLVKGRG [Val^8-Leu^16-Glu^26-GLP-1(7-37)OH]	0.23 relative to GLP-1(7-37)OH
HVEGTFTSDVSSYLEKQAAKEFIAWLVKGRG [Val^8-Lys^22-GLP-1(7-37)OH]	0.58 relative to GLP-1(7-37)OH
HVEGTFTSDVSSYLEGQAAKHFIAWLVKGRG [Val^8-His^27-GLP-1(7-37)OH]	0.37 relative to GLP-1(7-37)OH
HVEGTFTSDVSSYLEGQAAKEFIAWLKNGRG [Val^8-Lys^33-Asn^34-GLP-1(7-37)OH]	0.09 relative to GLP-1(7-37)OH
HVEGTFTSDVSSYLEGQAAKEFIAWLVKHRG [Val^8-His^35-GLP-1(7-37)OH]	0.41 relative to GLP-1(7-37)OH
HVEGTFTSDVSSYLEGQAAKEFIAWLVGKRG [Val^8-Gly^34-Lys^35-GLP-1(7-37)OH]	0.34 relative to GLP-1(7-37)OH
HVEGTFTSDVSSYLEGQAAKEFIDWLVKGRG [Val^8-Asp^30-GLP-1(7-37)OH]	0.15 relative to GLP-1(7-37)OH
HVEGTFTSDVSSYLEGQAAKEFIAWLVEGRG [Val^8-Glu^34-GLP-1(7-37)OH]	0.17 relative to GLP-1(7-37)OH
HVEGTFTSDVSSYLEGQAAKEFIHWLVKGRG [Val^8-His^30-GLP-1(7-37)OH]	0.19 relative to GLP-1(7-37)OH
HVEGTYTSDVSSYLEGQAAKEFIAWLVKGRG [Val^8-Tyr^12-GLP-1(7-37)OH]	0.81 relative to GLP-1(7-37)OH
HVEGTFTSDVSSYLEKQAAKEFIEWLVKGRG [Val^8-Lys^22-Glu^30-GLP-1(7-37)OH]	0.37 relative to GLP-1(7-37)OH
HAEGTFTSDVSSYLEGQAAHEFIAWLVKGRG [Ala^8-His^26-GLP-1(7-37)OH]	0.8 relative to GLP-1(7-37)OH
HGEGHFTSDVSSYLEGQAAKEFIAWLVKGRG [Gly^8-His^11-GLP-1(7-37)OH]	0.282 relative to GLP-1(7-37)OH
HVEGTFTSDYSSYLEGQAAKEFIAWLVKGRG [Val^8-Tyr^16-GLP-1(7-37)OH]	1.18 relative to GLP-1(7-37)OH
HVEGTFTSDVSSYLEGQAAKEFIAWLVKGEG [Val^8-Glu^36-GLP-1(7-37)OH]	0.11 relative to GLP-1(7-37)OH
HVEGAFTSDVSSYLEGQAAKEFIAWLVKGRG [Val^8-Ala^11-GLP-1(7-37)OH]	0.021 relative to GLP-1(7-37)OH
HVEGTFTSDVSSYLEGKAAKEFIAWLVKGRG [Val^8-Lys^23-GLP-1(7-37)OH]	0.18 relative to GLP-1(7-37)OH
HVEGTFTSDVSSYLEGQAAKEFIAWLVKPRG [Val^8-Pro^35-GLP-1(7-37)OH]	0.094 relative to GLP-1(7-37)OH
HVEGTFTSDVSSYLEHQAAKEFIAWLVKGRG [Val^8-His^22-GLP-1(7-37)OH]	0.14 relative to GLP-1(7-37)OH
HVEGTFTSDVSSYLEGQAAKEFIAWLVKERG [Val^8-Glu^35-GLP-1(7-37)OH]	0.15 relative to GLP-1(7-37)OH
HVEGTFTSDVSSYLEGQAAKEFIAWLKVGRG [Val^8-Lys^33-Val^34-GLP-1(7-37)OH]	0.08 relative to GLP-1(7-37)OH

Binder	GLP-1 Receptor Activation
HVEGTFTSDESSYLEGQAAKEFIAWLVKGRG [Val^8-Glu^16-GLP-1(7-37)OH]	0.047 relative to GLP-1(7-37)OH
HVEGTFTSDVSSYLEGQAAKEFIAWLVKGRH [Val^8-His^37-GLP-1(7-37)OH]	0.33 relative to GLP-1(7-37)OH
HVEGTFTSDVSSYLESQAAKEFIAWLVKGRG [Val^8-Ser^22-GLP-1(7-37)OH]	0.5 relative to GLP-1(7-37)OH
HVEGTFTSDVSSYLEEKAAKEFIAWLVKGRG [Val^8-Glu^22-Lys^23-GLP-1(7-37)OH]	1.43 relative to GLP-1(7-37)OH
HAEGTFTSDVSSYLEQQAAKEFIAWLVKGRG [Gln^22-GLP-1(7-37)OH]	0.42 relative to GLP-1(7-37)OH
HVEGTFTSDVSSYLEGQAAKEFISWLVKGRG [Val^8-Ser^30-GLP-1(7-37)OH]	0.19 relative to GLP-1(7-37)OH
HVEGTFTSDVSSYLEGQAAKEFIAWLAKGRG [Val^8-Ala^33-GLP-1(7-37)OH]	0.1 relative to GLP-1(7-37)OH
HVEGTFTSDVSSYLEGQAAKEFIAWLGKGRG [Val^8-Gly^33-GLP-1(7-37)OH]	0.01 relative to GLP-1(7-37)OH
HVEGKFTSDVSSYLEGQAAKEFIAWLVKGRG [Val^8-Lys^11-GLP-1(7-37)OH]	0.001 relative to GLP-1(7-37)OH
HVEGTFTSDVSSYLEGQHAKEFIAWLVKGRG [Val^8-His^24-GLP-1(7-37)OH]	0.007 relative to GLP-1(7-37)OH
HVEGTFTSDVSSYLEGQAAKEFIAWLEKGRG [Val^8-Glu^33-GLP-1(7-37)OH]	0.039 relative to GLP-1(7-37)OH
HVEGTFTSDVSSYLEGQAAKEFIAWLVKGHG [Val^8-His^36-GLP-1(7-37)OH]	0.22 relative to GLP-1(7-37)OH
HVEGTFTSDVSSYLEGQAAKEFIEWLVKGRG [Val^8-Glu^30-GLP-1(7-37)OH]	0.29 relative to GLP-1(7-37)OH
HAEGTFTSDVSSYLEGQAAEEFIAWLVKGRG [Ala^8-Glu^26-GLP-1(7-37)OH]	0.7 relative to GLP-1(7-37)OH
HVEGTFTSDVSSYLEGQKAKEFIAWLVKGRG [Val^8-Lys^24-GLP-1(7-37)OH]	0.02 relative to GLP-1(7-37)OH
HVEGTFTSDVSSYLEDQAAKEFIAWLVKGRG [Val^8-Asp^22-GLP-1(7-37)OH]	0.4 relative to GLP-1(7-37)OH
HGEGTFTSDVSSYLEGQAAKEFIEWLVKGRG [Gly^8-Glu^30-GLP-1(7-37)OH]	0.29 relative to GLP-1(7-37)OH
HVEGTFTSDVSSYLEAQAAKEFIAWLVKGRG [Val^8-Ala^22-GLP-1(7-37)OH]	0.56 relative to GLP-1(7-37)OH
HVEGTFTSDVSSYLEGEAAKEFIAWLVKGR [Val^8-Glu^23-GLP-1(7-36)OH]	0.28 relative to GLP-1(7-37)OH
HVEGTFTSDVSSYLEKQAAKEFIAWLVKGR-NH2 [Val^8-Lys^22-GLP-1(7-36)NH2]	0.53 relative to GLP-1(7-37)OH
HVEGTFTSDVSSYLEGQAAKEFIAWLVKGGP-NH2 [Val^8-Gly^36-Pro^37-GLP-1(7-37)NH2]	0.53 relative to GLP-1(7-37)OH
HVEGTFTSDVSSYLEEQAAKEFIAWLVKGR-NH2 [Val^8-Glu^22-GLP-1(7-36)NH2]	1 relative to GLP-1(7-37)OH
HVEGTFTSDVSSYLEKEAAKEFIAWLVKGRH [Val^8-Lys^22-Glu^23-GLP-1(7-37)OH]	0.35 relative to GLP-1(7-37)OH

Source: patent US20030220243A1 (Eli Lilly, published 2003)
